Experimental data: the supplement of paper PMC10567573

B1: LARP4 (parent)
chain: WTVANMEEIKKLTTDPDLILEVLR
B2: ZNF649 (parent)
chain: YQAGKPDALTKLEQGEPLWTLEDE

Variants of: B1
Test: protein stability index of a GFP-peptide fusion (GPS, HEK-293T) (PSI 1-6); higher = more stable
Details: c terminus: a fixed tail appended
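Further: lentivirally expressed fusions sorted by FACS into six bins by GFP to DsRed ratio, PSI derived from sequencing read proportions per bin multiplied by bin number.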

Protein stability index: each site, then its substitutions
L12: F 2.97 | H 3.11 | E 3.74 | N 3.08 | D 3.37 | I 2.23 | M 2.06 | W 2.46 | Q 3.09 | Y 2.62 | T 2.22 | C 3.11 | K 2.62 | P 2.26 | R 2.34 | S 2.97 | V 2.9 | G 2.6
V22: T 2.25 | Y 2.64 | D 3.77 | G 2.48 | A 2.79 | H 3.48 | C 2.86 | I 2.14 | L 2.34 | Q 3.18 | E 3.59 | S 2.56 | R 2.48 | F 2.77 | N 3.25 | M 1.91 | P 2.23 | K 3.3 | W 2.33
T14: M 2.54 | F 1.39 | R 2.14 | E 2.44 | D 2.46 | W 1.75 | G 2.01 | C 1.77 | A 2.08 | P 2.01 | H 3.88 | N 2.52 | Y 1.65 | L 1.99 | V 1.05 | Q 2.59 | S 1.91 | I 2.08 | K 2.21
P16: S 2.28 | L 2.21 | D 2.38 | R 2.25 | W 1.43 | C 1.75 | N 1.93 | H 1.63 | Q 1.84 | E 2.22 | K 1.59 | V 1.2 | A 1.55 | F 1.63 | M 2.11 | I 1.67 | Y 1.91 | T 1.89
L20: A 3.37 | P 3.02 | H 2.64 | W 2.01 | C 2.56 | T 2.52 | Y 2.17 | G 2.01 | D 3.74 | S 2.1 | I 2.1 | F 2.15 | E 3.68 | R 2.38 | K 3.53 | V 2.19 | M 2.02 | N 3.24 | Q 3.64
D15: L 2.1 | V 1.59 | G 2.05 | S 1.53 | W 1.89 | E 3.16 | K 2.05 | N 2.14 | H 2.21 | I 1.18 | P 1.97 | R 1.4 | A 1.69 | M 2.26 | C 1.53 | Y 1.38 | F 1.7 | T 2 | Q 2.1
L18: H 2.6 | R 2.87 | Q 3.13 | K 2.8 | W 2.54 | M 2.55 | F 1.92 | A 2.71 | N 3.53 | I 2.5 | D 2.77 | S 3.05 | T 2.26 | G 2.95 | C 2.34 | P 2.33 | Y 3.46 | E 3.67 | V 2.99
R24: N 2.48 | D 2 | L 1.12 | E 2.53 | A 2.12 | Y 1.57 | F 1.74 | H 1.75 | M 1.47 | S 2.27 | G 2.65 | I 2.14 | W 2.31 | C 2.3 | Q 2.38 | T 2.5 | P 2.37 | V 1.83 | K 1.82
T13: E 2.24 | H 1.97 | A 2.24 | Q 1.58 | D 2.56 | K 2.02 | C 1.88 | Y 1.86 | R 1.82 | L 2.14 | M 1.87 | S 1.39 | I 2.04 | G 2.23 | N 1.92 | P 2.24 | V 2.94 | F 1.82 | W 1.83
L23: Y 3.06 | C 3.17 | N 3.56 | P 2.89 | K 3.28 | E 2.96 | W 2.96 | F 2.46 | T 3.08 | I 2.65 | M 2.12 | A 2.37 | H 2.61 | R 2.47 | D 4.03 | V 2.85 | Q 2.63 | S 3.27
D17: M 2.16 | F 1.77 | L 1.52 | C 1.44 | Q 2.32 | P 2.2 | S 2.02 | Y 1.53 | K 2.05 | H 1.88 | E 1.79 | N 1.93 | V 1.98 | W 1.49 | R 1.86 | G 1.51 | I 1.25 | A 2.09 | T 1.77
I19: Q 3.12 | P 3.42 | Y 2.67 | L 2.12 | A 2.49 | F 2.18 | W 2.47 | K 3.21 | T 2.96 | D 3.77 | N 2.91 | V 1.59 | H 2.82 | G 2.26 | R 3.21 | C 1.96 | E 3.4 | S 3.09 | M 2.73
E21: S 1.66 | T 1.9 | F 1.63 | C 1.69 | L 1.48 | W 2.1 | G 2.21 | V 1.86 | I 1.85 | Y 2.12 | D 2.31 | H 1.58 | Q 1.6 | M 2.08 | A 2.1 | R 1.92 | P 1.98 | K 2.36 | N 2.32

Variants of: B2
Test: as above
Details: c terminus: a fixed tail appended

Protein stability index of substitutions, site by site:
K5: A 4.48 | C 4.72 | R 3.31 | M 4.38 | L 4.05 | N 4.84 | I 4.02 | P 5 | E 4.59 | Y 2.6 | S 4.48 | T 4.6 | D 4.01 | F 2.76 | V 3.03
Q2: C 3.87 | N 4.22 | L 3.1 | R 5.15 | V 2.53 | Y 3.56 | K 4.58 | S 4.99 | E 5.66 | T 5.05 | P 4.8 | F 4.6 | D 5.48 | H 3.08 | A 3.68 | M 4.63 | G 4.38 | I 3.29
G4: K 4.18 | P 4.63 | S 4.4 | E 4.38 | Y 3.59 | A 4.68 | H 4.58 | D 5.05 | C 4.47 | I 4.22 | F 4.8 | N 4.92 | T 3.97 | R 3.53 | Q 4.08 | L 4.17
P6: I 4.32 | C 4.17 | D 3.77 | E 5.46 | H 3.93 | G 4.99 | A 3.88 | F 3.31
Y1: G 4.71 | C 5.06 | A 4.88 | M 4.75 | R 5.16 | W 4.7 | I 5.01 | K 5.51 | Q 5.46 | P 4.5 | N 5.22 | L 4.51 | D 5.21 | T 5.57 | F 3.39 | H 5.25 | S 5.54
A3: T 4.54 | W 2.2 | E 4.65 | M 4.1 | F 3.64 | K 4.75 | C 3.83 | N 4.71 | L 4.26 | I 4.51 | Q 4.75 | V 4.42 | Y 4.25 | H 4.14 | R 3.66 | P 4.36
